The record followed here is US20120077730A1.

The target in the assay is human C5a receptor (C5aR) (human) (UniProt P21730). Briefly: cell-based or functional assay.

Bounds are passed on as bounds.

Chain of UniProt P21730 (P21730 whole entry): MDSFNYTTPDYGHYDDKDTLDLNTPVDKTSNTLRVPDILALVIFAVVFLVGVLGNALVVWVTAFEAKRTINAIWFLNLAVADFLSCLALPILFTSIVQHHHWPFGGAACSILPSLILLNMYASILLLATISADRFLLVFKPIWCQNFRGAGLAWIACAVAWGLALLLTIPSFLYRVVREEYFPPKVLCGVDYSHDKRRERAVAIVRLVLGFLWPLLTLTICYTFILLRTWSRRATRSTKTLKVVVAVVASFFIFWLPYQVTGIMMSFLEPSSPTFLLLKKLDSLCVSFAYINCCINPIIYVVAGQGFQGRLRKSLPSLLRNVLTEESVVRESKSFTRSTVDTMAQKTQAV

In the case of “CHIPS ΔN/C (CHIPS31-113) (from UniProt A6QIG7 59-141)”, the Chemotaxis IC50 turned out to be 0.5 mg/L.
In the case of “CHIPS variant clone 376 (ADC-1004; CHIPS ΔN/C format) (from UniProt A6QIG7 31-113)”, the C5aR blocking activity relative to wt CHIPS1-121 (% of wt CHIPS1-121) was more than 25 and the Chemotaxis IC50 was determined as 0.5 mg/L.
Consider “Wild-type (Wt) CHIPS1-121 (from UniProt A6QIG7 29-149)”, for which the Chemotaxis IC50 came out at 0.1 mg/L.
